Reference: patent publication US20090075929A1 (BOARD OF TRUSTEES OF THE UNIVERSITY OF ILLINOIS, published 2009)

Legend:
[1] = molecular target: T1, wild-type MADD (wtMADD), YFP-tagged, expressed in HEK293 or HeLa cells (Homo sapiens (Human), UniProt Q8WXG6 1-1647, phosphorylated in cells at S70, T173 and T1041 (recognized by anti-phospho S70, T173 and T1041 antibodies)); assay: co-IP with anti-IG20 antibody from HeLa cells expressing MADD-YFP, western blot; also not seen in the reverse IP with anti-caspase-8
T1 construct: Exogenous MADD detected with anti-YFP antibody; Order of MADD and YFP is uncertain; also called YFP-MADD; exogenous MADD; not shown: YFP tag
Text: (§1) These proteins were separated by SDS-PAGE and subjected to western blot analysis to probe for DISC components.
(§2) Samples were lysed, and the lysates were normalized for protein concentration and pre-cleared. […] Complexes were subjected to immunoblotting (WB, Western blot).

[2] = molecular target: T2, DR4 (death receptor 4, a TRAIL receptor), endogenous (UniProt O00220 24-468); assay: IP of DR4 from HeLa lysates, immunoblot for FADD
T2 construct: Endogenous protein immunoprecipitated or blotted from lysates of human cell lines; also called endogenous DR4; DRs
Text: DR4 and DR5 from HeLa and PA-1 cells respectively were immunoprecipitated and probed for known DISC components. […] Forty-eight-hour transduced HeLa cells and PA-1 cells were collected and lysed. Lysates were normalized for protein concentration, and DR4s/DR5s were immunoprecipitated using specific antibodies.

[3] = molecular target: T1, wild-type MADD (wtMADD), YFP-tagged, …; assay: co-IP from HeLa cells expressing MADD-YFP, western blot
Text: as §1, §2

binding result [1] | binding result [3] | Binder | binding result [2]
no binding |  | caspase-8 (pro-caspase-8, p55/53), endogenous (enzyme, UniProt Q14790 1-479, looked up) MDFSRNLYDIGEQLDSEDLASLKFLSLDYIPQRKQEPIKDALMLFQRLQEKRMLEESNLSFLKELLFRINRLDLLITYLNTRKEEMERELQTPGRAQISAYRVMLYQISEEVSRSELRSFKFLLQEEISKCKLDDDMNLLDIFIEMEKRVILGEGKLDILKRVCAQINKSLLKIINDYEEFSKERSSSLEGSPDEFSNGEELCGVMTISDSPREQDSESQTLDKVYQMKSKPRGYCLIINNHNFAKAREKVPKLHSIRDRNGTHLDAGALTTTFEELHFEIKPHDDCTVEQIYEILKIYQLMDHSNMDCFICCILSHGDKGIIYGTDGQEAPIYELTSQFTGLKCPSLAGKPKVFFIQACQGDNYQKGIPVETDSEEQPYLEMDLSSPQTRYIPDEADFLLGMATVNNCVSYRNPAEGTWYIQSLCQSLRERCPRGDDILTILTEVNYEVSNKDDKKNMGKQMPQPTFTLRKKLVFPSD | 
 | no binding | FADD, endogenous (other, UniProt Q13158 1-208, looked up) MDPFLVLLHSVSSSLSSSELTELKFLCLGRVGKRKLERVQSGLDLFSMLLEQNDLEPGHTELLRELLASLRRHDLLRRVDDFEAGAAAGAAPGEEDLCAAFNVICDNVGKDWRRLARQLKVSDTKIDSIEDRYPRNLTERVRESLRIWKNTEKENATVAHLVGALRSCQMNLVADLVQEVQQARDLQNRSGAMSPMSWNSDASTSEAS | binds
